Earlier results on 1 substance are cited in article PMC5519984.

Data set [1] concerns the target Ras (Homo sapiens) (UniProt P01112).
Data set [2] has the same target. The source holds these as a separate data set.

Read-outs that look alike come from different tables or passages of the source.

With HBS3 929-944 (from UniProt Q07889), the Kd – broadly, the constant that tells how readily two partners part at equilibrium – in data set [1] was 28 µM; in data set [2], 158 µM.
